Tests used:
[1] = biological target: T1, BSA-coupled (PA)15 DPR protein peptide (bovine, UniProt P02769 25-607, conjugated via a bifunctional linker (SMCC) to bovine serum albumin); assay: Western blot, BSA-coupled peptide
T1 construct: also called BSA-(PA)15
Procedure: (§1) Resolved proteins were then electroblotted (Novex® Semi-Dry Blotter, 1 h, 25V) on methanol-activated PVDF membranes (Immobilon®-P Transfer Membrane, Merck & Cie, Schaffhausen, Switzerland) by the use of Novex® NuPAGE® transfer buffer 2× (Life Technologies Europe B.V., Zug, Switzerland). Non-specific binding sites were blocked overnight at 4° C. (or alternatively for 1 h at room temperature) with PBS/0.1% Tween®-20 containing 2% BSA (Sigma-Aldrich, Buchs, Switzerland) (PBST). […] Membranes were washed three times in PBST for 15 min at RT and then incubated with a donkey anti-human IgG Fcγ-specific antibody conjugated with HRP (1:20000 or 1:10000 dilution, Jackson ImmunoResearch Laboratories, Inc., West Grove, USA) for 1 h at room temperature. Antibody binding was determined by membrane development using ECL and ImageQuant 350 detection (GE Healthcare, Otelfingen, Switzerland).
(§2) The binding specificity of the human-derived antibodies to BSA-coupled C9orf72 dipeptide repeat proteins (GA)₁₅, (GP)₁₅, (GR)₁₅, (PA)₁₅ and (PR)₁₅ was determined by Western blot analysis.

[2] = biological target: T2, BSA-coupled (GP)15 DPR protein peptide (bovine, conjugated via a bifunctional linker (SMCC) to bovine serum albumin); assay: Western blot, BSA-coupled peptide
T2 construct: also called BSA-(GP)15
Procedure: as §1, §2

[3] = biological target: T3, (GA)15: H-CHHHHHH(GA)15-OH; assay: indirect ELISA, uncoupled peptide coated, antibody titrated [also D00013 FIG. 3D]
T3 construct: synthetic, not coupled to BSA; also called poly-GA DPR protein peptide
T3 peptide: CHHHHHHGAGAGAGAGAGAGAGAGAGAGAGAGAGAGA
Procedure: (§3) In brief, dipeptide repeat proteins were synthesized and purified by Schafer-N(Copenhagen, Denmark): (GA)₁₅: H-CHHHHHH(GA)₁₅-OH; (GP)₁₅: H-C(GP)₁₅-OH; (GR)₁₅: H-C(GR)₁₅-OH; (PA)₁₅: H-C(PA)₁₅-OH; (PR)₁₅: H—C(PR)₁₅-OH. DPR protein peptides were then conjugated via a bifunctional linker (SMCC) to bovine serum albumin (BSA). 96-well microplates (Corning Incorporated, Corning, USA) were coated with BSA-coupled or -uncoupled dipeptide repeat protein peptides at a concentration of either 5 μg/ml or 20 μg/ml in coating buffer (15 mM Na₂CO₃, 35 mM NaHCO₃, pH 9.42). Non-specific binding sites were blocked for 1 h at room temperature with PBS/0.1% Tween®-20 containing 2% BSA (Sigma-Aldrich, Buchs, Switzerland). Primary antibodies were diluted to the indicated concentrations and incubated 1 h at room temperature, followed by incubation with a donkey anti-human IgG Fcγ-specific antibody conjugated with HRP (Jackson ImmunoResearch Laboratories, Inc., West Grove, USA). Binding was determined by measurement of HRP activity in a standard colorimetric assay. EC₅₀ values were estimated by non-linear regression using GraphPad Prism software (San Diego, USA).

GA4: H-(GA)4HHHHHH-NH2 = biological target: T4, GA4: H-(GA)4HHHHHH-NH2; assay: indirect ELISA, His-tagged peptide coated at 50 ug/ml, antibody titrated [also D00025 FIG. 7H]
T4 peptide: H-GAGAGAGAHHHHHH-NH2
Procedure: as §3, with “96-well” for “In brief, dipeptide repeat proteins were synthesized and purified by Schafer-N(Copenhagen, Denmark): (GA)₁₅: H-CHHHHHH(GA)₁₅-OH; (GP)₁₅: H-C(GP)₁₅-OH; (GR)₁₅: H-C(GR)₁₅-OH; (PA)₁₅: H-C(PA)₁₅-OH; (PR)₁₅: H—C(PR)₁₅-OH. DPR protein peptides were then conjugated via a bifunctional linker (SMCC) to bovine serum albumin (BSA). 96-well”, “with” for “with BSA-coupled or -uncoupled”, “50” for “either 5 μg/ml or 20”
(§4) High affinity binding was detected for poly-GA DPRs harboring 10 or 20 (GA)-repeats, reflected in an EC₅₀ in the subnanomolar or low nanomolar range (FIGS. 7A, 7C-7I).

GA2: H-(GA)2HHHHHH-NH2 = biological target: T5, GA2: H-(GA)2HHHHHH-NH2; assay: as above
T5 peptide: H-GAGAHHHHHH-NH2
Procedure: as §3, with “96-well” for “In brief, dipeptide repeat proteins were synthesized and purified by Schafer-N(Copenhagen, Denmark): (GA)₁₅: H-CHHHHHH(GA)₁₅-OH; (GP)₁₅: H-C(GP)₁₅-OH; (GR)₁₅: H-C(GR)₁₅-OH; (PA)₁₅: H-C(PA)₁₅-OH; (PR)₁₅: H—C(PR)₁₅-OH. DPR protein peptides were then conjugated via a bifunctional linker (SMCC) to bovine serum albumin (BSA). 96-well”, “with” for “with BSA-coupled or -uncoupled”, “50” for “either 5 μg/ml or 20”
as §4

GP20: H-(GP)20HHHHHH-NH2 = biological target: T6, GP20: H-(GP)20HHHHHH-NH2 (C-terminal amide); assay: sandwich ELISA, peptide captured by anti-His antibody
T6 peptide: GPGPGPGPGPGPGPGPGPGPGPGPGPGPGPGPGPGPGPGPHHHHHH
Excerpt: In brief, His-tagged dipeptide repeat protein peptides were synthesized and purified by Schafer-N(Copenhagen, Denmark): GA₂₀: H-(GA)₂₀HHHHHH-NH₂; GA₁₀: H-(GA)₁₀HHHHHH-NH₂; GA₆: H-(GA)₆HHHHHH-NH₂; GA₅: H-(GA)₅HHHHHH-NH₂; GA₄: H-(GA)₄HHHHHH-NH₂; GA₃: H-(GA)₃HHHHHH-NH₂; GA₂: H-(GA)₂HHHHHH-NH₂; GP₂₀: H-(GP)₂₀HHHHHH-NH₂; GP₁₀: H-(GP)₁₀HHHHHH-NH₂; GP₆: H-(GP)₆HHHHHH-NH₂; GP₅: H-(GP)₅HHHHHH-NH₂; GP₄: H-(GP)₄HHHHHH-NH₂; GP₃: H-(GP)₃HHHHHH-NH₂; GP₂: H-(GP)₂HHHHHH-NH₂. 96-well microplates (Corning Incorporated, Corning, USA) were coated with monoclonal mouse anti-His tag antibody (Takara Bio Europe/Clontech, Saint-Germain-en-Laye, France) at a concentration of 10 μg/ml in coating buffer (15 mM Na₂CO₃, 35 mM NaHCO₃, pH 9.42) overnight at 4° C. Non-specific binding sites were blocked for 1 h at room temperature with PBS/0.1% Tween®-20 containing 2% BSA (Sigma-Aldrich, Buchs, Switzerland). After a washing step, His-tagged C9orf72 DPR protein peptides at equal concentration of either 1 μM or 5 μM in PBS (pH 7.4) were added for target-trapping by the anti-His tag antibody for 1 h at room temperature. […] Antibody binding to DPR protein peptides was detected by a donkey anti-human IgG Fcγ-specific antibody conjugated with HRP at 1:5000 dilution (Jackson ImmunoResearch Laboratories, Inc., West Grove, USA) for 1 h at RT. Binding was determined by measurement of HRP activity in a standard colorimetric assay. EC₅₀ values were estimated by non-linear regression using GraphPad Prism software (San Diego, USA).

T1 sequence (peptide, as listed by the source limits assumed, chain 1 of 2): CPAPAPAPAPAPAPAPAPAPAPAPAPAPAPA
T1 sequence (P02769 25-607 limits assumed, chain 2 of 2): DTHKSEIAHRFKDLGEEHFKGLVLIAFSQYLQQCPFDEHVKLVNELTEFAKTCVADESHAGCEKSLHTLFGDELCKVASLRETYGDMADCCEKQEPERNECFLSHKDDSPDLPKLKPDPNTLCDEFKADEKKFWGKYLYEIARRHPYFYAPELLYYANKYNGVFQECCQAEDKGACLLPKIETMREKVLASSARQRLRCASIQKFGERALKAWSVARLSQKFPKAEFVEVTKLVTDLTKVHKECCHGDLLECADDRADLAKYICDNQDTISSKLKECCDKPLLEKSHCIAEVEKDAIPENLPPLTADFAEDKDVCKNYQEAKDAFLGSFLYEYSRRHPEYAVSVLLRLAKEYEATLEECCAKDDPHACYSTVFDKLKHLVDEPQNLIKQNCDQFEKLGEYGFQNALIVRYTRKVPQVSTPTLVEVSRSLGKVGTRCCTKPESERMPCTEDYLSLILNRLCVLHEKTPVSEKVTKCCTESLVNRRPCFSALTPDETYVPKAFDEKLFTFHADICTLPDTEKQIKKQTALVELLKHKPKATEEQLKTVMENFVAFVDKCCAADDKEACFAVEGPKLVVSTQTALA
T2 sequence (peptide, as listed by the source limits assumed, chain 1 of 2): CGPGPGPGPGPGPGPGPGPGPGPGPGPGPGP
T2 sequence (P02769 25-607 limits assumed, chain 2 of 2): as the sequence (P02769 25-607 limits assumed, chain 2 of 2) above

B1: NI-308.6B11 (antibody, V domains shown)
VH: EVQLVQSGAEVKRPGASVKVSCKVSGYTLTELSMHWVRQAPGKGLEWMGGFDPEDGETVYAQKFQGRVTMTEDTSTDTAYMELSSLRSEDTALYHCATYGSSWHWNEGNEGSYYFDYWGQGTLVTVSS
VL: CDIQMTQSPSSLSASVGDRVTITCQASQDISIYLNWYQQKPGKAPKLLIYDASNLETGVPSRFSGSGSGTDFTFTISGLQPEDVARYYCQQYDDLPITFGQGTRLEIK
notes: Recombinant complete human IgG1, kappa
Q: Does B1 bind [1]?
A: no binding (tested: 10 nM or 100 nM)

Q: Does B1 bind [2]?
A: no binding (tested: 10 nM or 100 nM)

B2: NI-308.28G1 (antibody, V domains shown)
VH: QVQLQESGPRLVKPSETLSLTCTVAGGSVNSYYWTWIQQSPGKGLEWLGRIYIAGRTNYNPSLTSRIALSVDTSRNQLSLKLTSVTAADTAIYYCARWGAESGDYYYGVDVWGPGTLVTVSS
VL: EIVMTQSPLSLPVTPGEPASISCKSSEGLLHSNGYTYLDWYLQKPGQAPQLLIFLASNRAAGVPDRFSGSGSGTDFTLKISRVEAEDVGVYYCMQAIQSPWTFGPGTKVEIK
notes: as for B1
Q: B2 was tested. Which EC50 [3] did it give?
A: 2 nM

Q: Does B2 bind (GA4: H-(GA)4HHHHHH-NH2)?
A: no binding (tested: about 4x10^5 pM (last point))

Q: Does B2 bind (GA2: H-(GA)2HHHHHH-NH2)?
A: no binding (tested: about 4x10^5 pM (last point))

B3: NI-308.5G2 (antibody, V domains shown)
VH: EVQLVQSGADLRNPGASVTVSCTASGYHFADNAINWLRQAPGQRLEWMGWINIYSGNTKYSQNFQGRVTFTRNTSASTAFMHLRSLRSEDTAVYFCARDPDSSGYYLPYFDYWGQGTLVTVSS
VL: DIQLTQSPDSLTLSLGERATINCKSSQSVFYNSNNKNYLAWYQQKPGQPPKLLMYWASTRESGVTDRFSGSGSGTDFTLTITNLQAEDVAVYYCQQFYSSPLTFGGGTKVEIK
notes: as for B1
Q: Which EC50 (GP20: H-(GP)20HHHHHH-NH2) does the source give for B3 here?
A: 38.2 nM

Source: patent US20200010567A1 (NEURIMMUNE, published 2020)
